Measurements published in patent publication US20230226096A1 (Orna Therapeutics, Inc., priority 2020, published 2023).

B1: Didelphis aurita HAV (nucleic acid)
DNA: TCTTTGGTCTGGGGAACTAAAATACCAGACCCGCGTTTGCCTAGCGATATAGGCTTTAATTGTTGTTTGTCATTGTGCGTTTGATATGTGTTTTAATGTAAATAATAATTCTAGCAGGTTCTAGTTCTTGATCATGTCCTCTTTAAGGCACTCATTTCAACTTGCTATCTTTCTTTTCTTCCTTGGTTCTCCCTACACCAAATGCACTGGCCGCTGCGCCCGGCGGGGTCAACCACATGATTAGCATGTGGCTGTAGGTGTTGAAGGCTGGGACATGAACATCAATGGAATAGTGCGCATGCTTACTGGGGTCCATTGAAGTAGTGGGATCTTTCTATTGGGGTAGGCTACGGGTGAAACCCCTTAGGTTAATACTCATATTGAGAGATACCTTGGATAGGTTAACTGTGCTGGATATGGTTGAGTTTAACGACAAAAAGCCATCAACAGCTGTGGACAGAACCTCATCCTTAGATTGCTCACTATGGATATGTGCTCTGGGCGTGTTTCTTGCATGATGGCCATTGGTCAATTCATGCCTGGGCCAATGTAGGATTAGCCTTAAATTACTTTTTAAAAGTAGCCTCATTTAGCTGGACTAATGGTGGGGCGTATGATCCTGCATTTGGCCTCTGGGGTAATCAGGGGCATTTAGGTTTCCACATAATAGCAAAT
modifications: Hepatovirus A
B2: Hepatovirus D (nucleic acid)
DNA: CTTTGGATGCCCATAGTGCGGGGGTATAAATACCGCACTCCCTTTAGCTGTTCCGAGGGTATCGGAACCTATATGTTTGTTTTCTGTCTGTCTGTCAGCTTTATGTGTGCTCGTCCCCTTTAGGGCACTCATTTCAGCTTGCTTTCATTCTTTTCTTCCCCGGTTCTCACCTTACCGGAGGCACTGGCCGTTGCGCCCGGCGGGGTCAACCTAGTGATTAGCACTAGGCTGTAGGTGTCTAAAGTGGTGACATTAAGACTTGGTAACTGATTTCAGCACTGTTAACTGATGTTGGGGATGACTTGATTGATCTTCTGGAAGGGGTAGGCTACGGGTGAAACCCCTTATCTTAATACCACTATGTAGAGATAGATTCAGTAGGTTAAGGGCAGTGGATAAGGTTGAGTTCATTTTGGACAATAAACCTTCAACACTGGTGGACCCAATCTCACTGACCAGATGCTTTCTTGACTGATCCTTCAGAGGGGTGATTCTTCTGAATAGGTTGCCTTGACACTGATGCCTGAGACCCATTGGGTCGGGCCTTAAATCATGGAACTCCACTGGACTTTCATGGCCTAGCTTCTGCCTTAGACAGACTCTGGGGCCCCACGACCCTCTGGGCCCTTCGGGGTACTCAGGGGCATTTAGGTTTTTCCACAATTAAAAGAGTTA
modifications: Hepatovirus D
B3: Grusopivirus A (nucleic acid)
DNA: TGCCTGAGTAGGATTGTGAATTTAGGTATGAGAGGGTTAGCCAACCCATTCTGAACCATAATAGATACGTCAATCTGAATCCATCTAAATCTATCTCTTAGGCAGTGGTGCTGAAATATTGCAAGCTACTAGGGATAGACGTGATCTGATTCAAGAACCTATCTAATGTGGTGATGAGAAGGCTAGGTTTATCCATAGTAATCCCTTGTTCTGAACAGGCAATGCACATGCTCTAGTAGGATCTCGGGCTCTGCGATTGGCTCTAAACCGACCAATCCAGGTAGAGGCACTAAGTGTAGGACTTGCCAAAATGTATTACATGCTGGTACCGACTCACTAGTCTGGAAACTCCACACTGAAAGTGACTGGGGGGGGCCCCATCACATTTGTGCTACTGCTTGATAGAGTTGCGGCTGGTCAACTTGGATTGGTATAACCAGTTGAA
modifications: Grusopivirus A
B4: Tremovirus B (nucleic acid)
DNA: TTCAAATGGCCCCTGGGTTGATACCCAGTGGTCATTTGGACACTTTGGTAAGGAGGTGTAATTATCCTTCCCATGTGGAACCTAGTGCTTAGGTTTACTTTATATGTTCTTTGTTTGTCCTTTGTACTTTCTATCGGGCAATCTTGTTGTTCAATACAATATGTATTTGAACTGCCTAAGATAAATTCAGTTTTCAACCAACCCCTCTCTTGGGGTTGTGTCTTTCTTTCTTTCTTATATCCTCTTAAGCTGACTTACTTGCTAATCCGACTCCTCGTCAACGGGAGGGTAAAGCAGTATCACTAGGGTATTGTGATGTAGGAGAAAAAGTAAGTAGAGATAGTGCATGTAACGAAAGTGACTTGGTACTTTAAACTCTCTTAATCCCAAAGTGTGGTATTGGTCATGTTGGAGTAGGCTACGGGTGAAACTCCTTCACATTTAGTAATGTGTTCACACGCTAACGCTACGGTAGATGACAGACTAGGTCTTATTCTCAACGTAGGGGGACGGGTGTATGTTCATGATTAGCCACATATTAAGGTTTTGAGGGGCTGAGTCATATAAGTATGTGCATTAATTTCTGGTACTGGTCCCTGGGGACTGGCCCTTTTCTAGGTTGATTTTAGTTTCCCCAATTTTTAAAAACTAATGAGATTTACGAC
modifications: Tremovirus B
B5: Grusopivirus B (nucleic acid)
DNA: GCCATCCGTAGGTTCTGGTAAGGTTCCATCAACTGTTGGGGCGCTAGTTGCTATGACCGCATTCACGGACGGATGATTTATAGTATCACCCAATCCGGGCACAACTTCTTTAGCCACTTCTTCCACATTACTAAGGGCTCTCTTGCCGAGTTTCAACGTCTAGTCCACGACACGGACCTTCCTACTTTTCTATCTTCTTATTTTCTCTACTAAATTGGTATCTGGTACTGAAGATATGCGGATTGTGATTTTGTGCCTGTCTAAACTAACCCTATTCTAGGGTTAGGTGGGTACCATATACTAATGGTGAACAGGATTACCTATGTATCCATTAGTCCCTATGGATCTGGCGACCCACAAACTCATGTTCATAGAGAGGCTAAGCTGAGTGCTCGCCGAATAAGCATTGCTTCAGGTGCCGACTATTGTCTGGAAACCACTCAGTGATAGCTATAGGGGGGGGCCCCGTAGCATCTGCCTTACTGCCTGATAGGGTGGCGGCTGGTCCATGAACATGCAGTAACCAGTTGACTTGAC
modifications: Grusopivirus B
B6: Hepatovirus G1 (nucleic acid, listed as Hepatovirus sp.)
DNA: GCAAGGGGTGGTTTTAACCTTGCACGCGTTTACCGTGCGTTAACGGTTTTCCATGTTTGTATGTCTTGTTTGTATTATGTGTTTTGTAAATATTAATTCCTGCAGGTTCAGGGTTCTTTAATCATGTTGGGCTGTACCCACACTCAACTTTTGGCCATAAGTGAGTTTCTTAACGAACCTTTTAACACAGGATGTTATTAGGGCCCAATATTTTCCCTGAGGCCTTCTTTGGCCTCTATTTTTTCCCCTTTTCTATCTCCTTGTATTCCGGGCTCACGTGATGCCAATGGACTGACCCATGCGCCCGTGGGGGTTAACTACTGGAGTAGCCAGTAGCTGTAGGTGCTAAAAGTCACGTACGTGTAAGACTGGACGAGACCTCTCAGCTATAACTGAAAGTAGTAAGTATGTCTGAACTTCTTGAAGGGGTAGGCTACGGGTGAAACCCCTTAGGTTAATACTCATATTGAGAGATACCTCTGATAGGTGAAGGTTTCCGGTAGAGGTGAGTTTAACGACAAAGCCTCTCAACGGATGTGGGCCCACCTCATCAGCAAGATGCTTTCATACCCAATACCGTAGGGGCTGGGTTGTTGAGTTCAGTCCCAAGCGTCCCTCCCGCAAGGTTGTAGGGGTACTCAGGGGCATTTAGGTTTCCACAATTAAACAAATACA
B7: Falcovirus A1 (nucleic acid)
DNA: TAAAAGGGGACGCGGTGTGGCAGCTTTGGCTGTCATGCCGTGTTCTCCTTTTACCCCAAGGACTAGCCTTGGGGGTTTTCCAAATTCCTTTCCCTGTAGGCTTTACTTCTCTTTATCTATCTTTTCTGTAACTAAGTTTTGCCTATTCTAAAAATATTTTAGAATGTGTTTGGATGTAACTAAGTTTGTGCCTGCCCTAAAAATATTTTAGGGCTTGTTTGGATAACCTCGTCCCTTGTGTTCAGTGCCGCACAATTTGCTAGGCACTGTTCACTTCCTTTGTTTGTCCATTATGTATGCTAAGGTATGAATTCCATCATATGCTTAGCCTCTACATGCATAATCTTATTCCCTCCCTGGTGCAAACTACGCCCCCAACATATGTGAATCTTTTAAGCATATTCCTGACCCCACACATATATATGTGTTCTCGTGAATTCCCCCACCGTGAGGTGGTCACTTGGACGTGGTGTGTGTCACACAGCATATATATGATGCAGGATGTTGTTTTTAAGATAAGCATATGTCCTTAGTGCTTTGCATCATTTCCTCCACACCCCGTGAATGCGGCTAATCTTAACCCTGTTGGGTCCGTGGGTAAACCAACCCATTAACCACAGGACGGAACCGACTACTTTCGGGAGTGTGTGTTTCTTTTTCTTCTTTTGTCACT
B8: Turkey Gallivirus M176 (nucleic acid, listed as Gallivirus sp.)
DNA: CCACTCGCACTTCCTGGATAGTGCGTTAGATATGCCCGACATATCGCTTCCAGGACCAAAGCCCCCCTTTTCTCTTTCCCAACCAGCTTCGCCACTCAAGCTGTAATTCCATGTCCGGTCTTTCCGGCCTTAGTATCATGGAAATGTGGTCGTGCTCAAATGAAATTGAGTTGACATTGATCAATGAAAGTTGCACTGAACTTTGCTAAACTGGCTAGCGCCACCTGGTGTGTGCCGTTGGTCTCCTCACATGGTAACATGTGCCAACGGGCCCGAAAGGCTAGTGGGCAATTACCGCTCCAAGGGAGGGGTACCCACCCCGACCTGAACAGCGGTAATGAAGCTCACCTCCCAGGCTCTGACCCCGAGAAGTTTAGTTATTTAGTAGGTGTAATTAGTACTTGTGATTGGTCAATTTGATAGTAGTTTGAAACGTTATGGATGAATGAGTAGACCCCCTGAAGGTACCCCATTACATGGGATCTGATCAGGGCCACATTCTGCGTGTCTCCCCGCACTTGTGGTTAAAACCATGAAAGTTCATCCCAAACAATCTTTTCCTCTTCTTTTTCTTTTAGTGGTGACAACCTACTGGATTGGTGATTACCAATCTGTACTAGTGTTGTATTAAGACTTGTTGTGTGGAGAAAATGGACTCTTTCAAGAAGATTTTTG
B9: Yancheng osbecks grenadier anchovy picornavirus (nucleic acid)
DNA: CCTTAGGGTCTGGAATGCGTCCTTTCTGGGCACTTCCACAATCCTAAGGTAATTTTCAACGCCAGCGATGGAGCGATATCCAAAGAACCTTTATGTTTTAGTTCGTCTTGTATGTTTATAAAATATAAAATTGGGATTAGCAACCCACAAAAACATTTTTGTTATTCTCACCACATGAGAGGGTGGTTAAACCTCTTCGTAACCTATCTTGCTTGATTGGCTACTTGGGCTAGATTTAGGACAACCTCTTTAGCAAGCCTAAATTACTCCTCGTACTTGCACCTGGTAACAGGCGTACCTGGAGGTTACGGTGGCGCTAACTTGGACTTCTCGTTAATTCGTGCAAGTTTAAATGATGCCTATTTTGAATACAAGAAAGTATGATAGTAACTTAGGGCGTGAAGTTCCGCTTAACATAAGGCAGTATAAGTACTAAGATAAGGTGTAAGACCTACCTTAATAACTGTTGTCTTTTCTCATGGTCTTTCCGTGGGAGCCCTTGCTAGGGGTAAAGTTAAGTATTCTCAAATAATTTTTCATTCAAACTCTTTCTCTCTGTTTT

These molecules were tested on HEK293 cells. Conditions: luminescence from secreted Gluc in supernatant 24 hours after transfection of HEK293 cells; circular RNA encoding Gluc with the named IRES (UTR truncated to 675 nt).
Format: cell-based, human

Molecule | Expression
B1 | 1.38E+05
B2 | 1.47E+06
B3 | 1.09E+05
B4 | 1.31E+05
B5 | 2.12E+05
B6 | 1.41E+05
B7 | 1.48E+05
B8 | 4.37E+05
B9 | 1.57E+06
